The results in this text go back to the DeepSol protein solubility set.

This data set is described as follows: soluble on expression in E. coli; label from the status in PepcDB or PDB records.
For the sequence “MGSDKIHHHHHHMKETEARAAEALRRLLENIPILHVEGIDAEAVSGDWVPDLIARLVVDGKRHLLICEYKSSGQPRFARSALLELRNYVAQRAPEATPVFIAPYISPVVRKMCEEKGVGYLDLEGNARIAFGGVFIERMVTDKPVVEQRELRSLFRPKSAQVLRAMLRDPGRAWRVTELSEISGVSLGHVSNVRTGLIDREWARASDDGLILSEPDALLDAWRDSYAAPAGERSSFYTPLHGSALEDAARSVLRVEDTRGRAAFASFSAAQWLAPYGRTGTHYFFADEDGLRKLQAALKLAPALKGENVIVTVPKDLGLLADTVEPAPGAICTSPVQTYLDLSIAGERGAEAADHLRQERLSWPR”, the “soluble on expression in E. coli” value is reported as “not soluble”.
For “MSLDTDRILRAFASLVQATLRTNYFVTRQGSARCRDVLALKLNAQLIDELPLPRPRYEIFVYSPRVEGVHLRFGPVARGGLRWSDRRDDFRTEILGLVKAQAVKNAVIVPVGAKGGFVVKRPPLPTGDPAADRDATRAEGVACYQLFISGLLDVTDNVDHATASVNPPPEVVRRDGDDAYLVVAADKGTATFSDIANDVAKSYGFWLGDAFASGGSVGYDHKAMGITARGAWEAVKRHFREIGIDTQTQDFTVVGIGDMSGDVFGNGMLLSKHIRLIAAFDHRHIFLDPNPDAAVSWAERRRMFELPRSSWSDYDRSLISEGGGVYSREQKAIPLSAQVRAVLGIDGSVDGGAAEMAPPNLIRAILRAPVDLLFNGGIGTYIKAESESDADVGDRANDPVRVNANQVRAKVIGEGGNLGVTALGRVEFDLSGGRINTDALDNSAGVDCSDHEVNIKILIDSLVSAGTVKADERTQLLESMTDEVAQLVLADNEDQNDLMGTSRANAASLLPVHAMQIKYLVAERGVNRELEALPSEKEIARRSEAGIGLTSPELATLMAHVKLGLKEEVLATELPDQDVFASRLPRYFPTALRERFTPEIRSHQLRREIVTTMLINDLVDTAGITYAFRIAEDVGVTPIDAVRTYVATDAIFGVGHIWRRIRAANLPIALSDRLTLDTREGHHHHHH” the value was “not soluble”.
Under “MRVSLYVVVGGFALLTGCQTLDNHQVTKPEAQTVTTENTVPQYYLATEPESAQVTDVWERIRQGMQLPVPDKKLVNYYRDWYINNPKHLEVISERAAPYMYLIVEELEKRHLPIEIALLPIIESAFDPSASSASAASGLWQFTTPMASHFGLEMNWWYDGRRDVPASTTAALDMLEYLYNKTNNNWLYAIAAYNTGESKVLNAIKRNEDKGLKTDFWSLDLPKETKRYVPQLLALAEVIKHADEYGITLAPINNSPSIEVVDIDSQIDLAMAAGLANMTTTELAKLNPGYNRWATSPLGPHTLVLPIDKSEEFKKALAETESEARVSWLRYTIKSGDSIGSIAQKHHTTVNAIRAANGMKSNNIVAGRHLIIPVSADDKQLYALSTSQKLPKKAAGATSGNKLTYQVKSGDSLWQIAQAHNVSVKQLTAWNHLSKDSKLQTGQKLTIVAPQEKLDSEHIRTVSYKVKSGDSLAQIASKFKVTVAELLEWNSLTPSQYILPGQVLKLVVDESNLNALEHHHHHH” stands “not soluble”; under “MSLGYKCVYMLSEIKEYLKNTVLFAFDFETSPRDKWRNDKSAALDAHKADITGISFSVSEGTAIYVPLKHRSGRNAENQAAIWDYLKLLFESKDVIKVAHNLAFESMFLYARGIVLQKPCYDTIAASQLTLKSKWEFRSLADSGLKTLAPALCKAEMTEFSTVTEGRFFDELNPQDEKTVRYACADSDYTLRLYHVFNQWFDRFLPKHRTIVEEVESPTSVYVGIMKYNGILVDKSAMLKKQAEAAEKIVSIRKEIAGIIGNVEIGANASTSAFKKYLFVDLGLPVMKTTAKHQEAADDETMILLKEWCATNRPELVRLFELVQEYRKWGKLKSTYIDGYLRFIDEDTGRIHPDLMPLGTETGRFASRNPNMQNCPQKDNDPIGVRKFIIAPAGKVLLSLDFSQIELRVGAFYCRDKRMLETYRTGGDIHAQTTSVIYRIPFEEAADKNAPHYKERRTIAKNCNFGVFYGLFPTGLQRTLKFKAGINPTLAECETIIQNLKSGYPGLAKWQDEVKKRAAVSCYSETWLGRRRYLLGIRSSDWGKKSFAERCALNTPIQGTAADILKLACGRIISGLPERLWLKPMLQIHDELVFELPEDKVDEAVVFIKECMETQPFPAFDVPIVAEASVGRNFGEMKEMEEGHHHHHH”, “soluble”; under “MSRIIMLIPTGTSVGLTSVSLGVIRAMERKGVRLSVFKPIAQPRTGGDAPDQTTTIVRANSSTTTAAEPLKMSYVEGLLSSNQKDVLMEEIVANYHANTKDAEVVLVEGLVPTRKHQFAQSLNYEIAKTLNAEIVFVMSQGTDTPEQLKERIELTRNSFGGAKNTNITGVIVNKLNAPVDEQGRTRPDLSEIFDDSSKAKVNNVDPAKLQESSPLPVLGAVPWSFDLIATRAIDMARHLNATIINEGDINTRRVKSVTFCARSIPHMLEHFRAGSLLVTSADRPDVLVAACLAAMNGVEIGALLLTGGYEMDARISKLCERAFATGLPVFMVNTNTWQTSLSLQSFNLEVPVDDHERIEKVQEYVANYINADWIESLTATSERSRRLSPPAFRYQLTELARKAGKRIVLPEGDEPRTVKAAAICAERGIATCVLLGNPAEINRVAASQGVELGAGIEIVDPEVVRESYVGRLVELRKNKGMTETVAREQLEDNVVLGTLMLEQDEVDGLVSGAVHTTANTIRPPLQLIKTAPGSSLVSSVFFMLLPEQVYVYGDCAINPDPTAEQLAEIAIQSADSAAAFGIEPRVAMLSYSTGTSGAGSDVEKVREATRLAQEKRPDLMIDGPLQYDAAVMADVAKSKAPNSPVAGRATVFIFPDLNTGNTTYKAVQRSADLISIGPMLQGMRKPVNDLSRGALVDDIVYTIALTAIQSAQQQ”, “soluble”.
For “MLRFVAILQFILLLLLIFSCNADEAKCTIKPYEAKGDKSPGSNGYVIEINGTTTKSMDISKGFVPGEIYKVSIRGWRTQYTVKTFRGFVVSSLFEDNTSAGSWQVVKGHGDARISPGCRQSGVSHANLKSKTSVHMMWKAPEVSSGCVVFRASVIETKYIWFTEAEGLTVKLCIQKGTQILKPVDDPSATCCACDIAQYDLEFTGIWSKNTHPKDYPTLEHLTHFTDMLGSSHSSNYSLWTIGGISTDGMKEIAEWGNTYKAEAEAKAKASEVRSLMKVKGLWFPDVQGTTKSQFVVNKYHHFVSLATMFGPSPDWCVGLSSVNLCLPDCTWAEERTFELQPFDAGTDSGPTYMSPNEPTEPREPIHWITTKLNPLSPFYNSKSDTIPTLAKVILRRKNVTSSECKSDDILKAEAHNITNTSEDEEYKDRRECMMTQWEPWSLCSATCGKGIRIRSRVYVFPIKAQVFHCHRQTTEKQFCNAKINECENSEAFSSKCQVSSWGSWGECSVQCGHGMRSRNRTFLNPATKSGDCSVDLERKDICVGENGDDCNVTPDPLCKTTAWSDWSPCSASCDEGVRVRTRLFFYSEHEKRCMHVNLQEKDTCVMQSCRRFIEINSEEICQEDKQAGQCAGNFPRYWYNHEKTQCERFIFTGCKGNRNQFETEEECKQICLPGYEKSKSLIPNNQLLEDFGNTEVDDGGERVDCEVSKWTAWGSCSVSCGRGKKSRSRHVVKLARNGGHQCSEHLMQELQCRLRPCPVKLTCQVGPWSRWSPCSVSCGEGSQTRRRRVVRARNDDWEEIECDDAETEVRQCTGRHQC” the value was “not soluble”.
“MVMSFIKYPLPESVLQATEQRIQWVMDNFSRICVSFSGGKDSTVMLHLTAQAARLQGKKICVLFIDWEAQFSCTIAHCEKLRALYADVIETFYWVALPLTTQNALTQYKPQWQCWEPGTEWVRQPPPWAITHPGYFSFYQPGMSFEAFVSHFAEWFSQRRPAAVLVGIRADESLNRFMTISSQRKQRFADDKPWTTSAPGGHAWYIYPLYDWKTADIWTWFAKSGEPYNPLYDLMYQAGVPLRYMRICEP”: the “soluble on expression in E. coli” value is recorded as “not soluble”.
Under “NEHLGGIYDYLRTRRMQTLTELERTTTIETKTTREAIPETEAKADYRRQKEVAKQLRTLERTVATCEERIGKLESELQAIEMLLQDPKHATDANLFERYAGMKQELEKAMEDWEQASEALSEAQG” stands “not soluble”; under “MSLKAKYVWVALLALTFFGCDDNTGTIGWDMLPDSDQNINGRYTTYELTTNSDLSGPVFAKTSVGYVGKFTDKEFGEYEASFLAQLNSPDGISFPSVYDPETNPKGVMAGDSIHTAELILYYKSYFGDSINPCRMTVYELDENLTQNYYTDIDPLKYYNPNNLLARKAYTAVDQSLSDSIRNSDDFYPNVRLTSEEITKLGKRIYRLNRDHPEYFKTSEAFINNVFKGIYAKNDYGNGTILYVDQINLNVVIRCHEKDSLGNNLKKKNGADSLYYTTRTFATTKEVIQANKFVNSEKLNEIAKKTDCTYLKSPAGIFTQATLPINKIYEELSHDTINAVKLTFNSYNQPDNGKFSMKAPTYVLLLREKERQSFFEENKLTDNITSYLAVHNAIISNKPTTNQYVFTNLTRLINACVNEKQEAKKKAGDSWNEAAWEAANPDWNKVVLIPVLVQYDSSSNKNMISIQHDLQPGYVKLEGGPDGTKLKLEVTYTNFNGKEGHHHHHH”, “not soluble”; under “MGSDKIHHHHHHMTLSFVTRWRDELPETYTALSPTPLNNARLIWHNTELANTLSIPSSLFKNGAGVWGGEALLPGMSPLAQVYSGHQFGVWAGQLGDGRGILLGEQLLADGTTMDWHLKGAGLTPYSRMGDGRAVLRSTIRESLASEAMHYLGIPTTRALSIVTSDSPVYRETAEPGAMLMRVAPSHLRFGHFEHFYYRRESEKVRQLADFAIRHYWSHLADDEDKYRLWFSDVVARTASLIAQWQTVGFAHGVMNTDNMSLLGLTLDYGPFGFLDDYEPGFICNHSDHQGRYSFDNQPAVALWNLQRLAQTLSPFVAVDALNEALDSYQQVLLTHYGERMRQKLGFMTEQKEDNALLNELFSLMARERSDYTRTFRMLSLTEQHSAASPLRDEFIDRAAFDDWFARYRGRLQQDEVSDSERQQLMQSVNPALVLRNWLAQRAIEAAEKGDMTELHRLHEALRNPFSDRDDDYVSRPPDWGKRLEVSCSS”, “not soluble”.
For “MSSFVPNKEQTRTVLIFCFHLKKTAAESHRMLVEAFGEQVPTVKTCERWFQRFKSGDFDVDDKEHGKPPKRYEDAELQALLDEDDAQTQKQLAEQLEVSQQAVSNRLREMGKIQKVGRWVPHELNERQMERRKNTCEILLSRYKRKSFLHRIVTGDEKWIFFVNPKRKKSYVDPGQPATSTARPNRFGKKTMLCVWWDQSGVIYYELLKPGETVNAARYQQQLINLNRALQRKRPEYQKRQHRVIFLHDNAPSHTARAVRDTLETLNWEVLPHAAYSPDLAPSDYHLFASMGHALAEQRFDSYESVKKWLDEWFAAKDDEFYWRGIHKLPERWEKCVASDGKYFE” the value was “soluble”; for “MGHHHHHHSHMVITIYYDVKVRFIVRGCGQYISYRCQEKRNTYFAEYWYQAQCCQYDYCNSWSSPQLQSSLPEPHDRPLALPLSDSQIQWFYQALNLSLPLPNFHAGTEPDGLDPMVTLSLNLGLSFAELRRMYLFLNSSGLLVLPQAGLLTPHPS”, “not soluble”.
“MGQSLPLHLLKYPSKFSINIYAAPVSDAREMALGSKDIVFVGSRSAGKVYAVIPDKKNSHGTRVLTIASGLNMPNGVAFHKGALYVAEIGRILRFDNIESNLNNPPEPVVVTTKLPKEKAHGWRFISFGPDDKLYIGIGAPCNVCLMEDPRYATIMRMNTYGQDLEIYARGIRNTVGFDWDPLHHNLWFTDNGRDWLGDNLPPDELNVAPRKGMDFGFPYCYGKSTVDPVYGKIHSCSEFTPAVFEFPAHVAPLGMSFYTGKLFPSNYWGQIFISEHGSWNRSHKIGYQVTTVKIKNNHVTEVKPFISGWLQGEKAWGRPVDTLVMPDGSLLISDDYANVIYRVSYQLEHHHHHH”: the “soluble on expression in E. coli” value is on record as “not soluble”.
For “MEEEVSRKTVAISVQAAKLTGRVLFMACQKFLAGVQKHNRDALTPHGRQTVKQLMGHTGQSNSIQLKGDARLFDRVARKFNVDYAFHKVGPKDYLLFFKAGQADAITAAFSEYTKRVMARQNDKPSIRRGLRQAMGRVKPRQKEREKTREAVQER” the value was “not soluble”.
